{
  "source": "patent US20240034787A1",
  "about": "(TOKYO UNIVERSITY OF PHARMACY AND LIFE SCIENCES, published 2024)",
  "target": "T1, LRP1 of rat retinal ganglion cells (rat, UniProt G3V928 20-4545)",
  "T1 construct": "Endogenous LRP1 in the rat retina (ganglion cell layer); also called LRP1 on retinal ganglion cells",
  "T1 sequence (G3V928 20-4545 limits assumed)": "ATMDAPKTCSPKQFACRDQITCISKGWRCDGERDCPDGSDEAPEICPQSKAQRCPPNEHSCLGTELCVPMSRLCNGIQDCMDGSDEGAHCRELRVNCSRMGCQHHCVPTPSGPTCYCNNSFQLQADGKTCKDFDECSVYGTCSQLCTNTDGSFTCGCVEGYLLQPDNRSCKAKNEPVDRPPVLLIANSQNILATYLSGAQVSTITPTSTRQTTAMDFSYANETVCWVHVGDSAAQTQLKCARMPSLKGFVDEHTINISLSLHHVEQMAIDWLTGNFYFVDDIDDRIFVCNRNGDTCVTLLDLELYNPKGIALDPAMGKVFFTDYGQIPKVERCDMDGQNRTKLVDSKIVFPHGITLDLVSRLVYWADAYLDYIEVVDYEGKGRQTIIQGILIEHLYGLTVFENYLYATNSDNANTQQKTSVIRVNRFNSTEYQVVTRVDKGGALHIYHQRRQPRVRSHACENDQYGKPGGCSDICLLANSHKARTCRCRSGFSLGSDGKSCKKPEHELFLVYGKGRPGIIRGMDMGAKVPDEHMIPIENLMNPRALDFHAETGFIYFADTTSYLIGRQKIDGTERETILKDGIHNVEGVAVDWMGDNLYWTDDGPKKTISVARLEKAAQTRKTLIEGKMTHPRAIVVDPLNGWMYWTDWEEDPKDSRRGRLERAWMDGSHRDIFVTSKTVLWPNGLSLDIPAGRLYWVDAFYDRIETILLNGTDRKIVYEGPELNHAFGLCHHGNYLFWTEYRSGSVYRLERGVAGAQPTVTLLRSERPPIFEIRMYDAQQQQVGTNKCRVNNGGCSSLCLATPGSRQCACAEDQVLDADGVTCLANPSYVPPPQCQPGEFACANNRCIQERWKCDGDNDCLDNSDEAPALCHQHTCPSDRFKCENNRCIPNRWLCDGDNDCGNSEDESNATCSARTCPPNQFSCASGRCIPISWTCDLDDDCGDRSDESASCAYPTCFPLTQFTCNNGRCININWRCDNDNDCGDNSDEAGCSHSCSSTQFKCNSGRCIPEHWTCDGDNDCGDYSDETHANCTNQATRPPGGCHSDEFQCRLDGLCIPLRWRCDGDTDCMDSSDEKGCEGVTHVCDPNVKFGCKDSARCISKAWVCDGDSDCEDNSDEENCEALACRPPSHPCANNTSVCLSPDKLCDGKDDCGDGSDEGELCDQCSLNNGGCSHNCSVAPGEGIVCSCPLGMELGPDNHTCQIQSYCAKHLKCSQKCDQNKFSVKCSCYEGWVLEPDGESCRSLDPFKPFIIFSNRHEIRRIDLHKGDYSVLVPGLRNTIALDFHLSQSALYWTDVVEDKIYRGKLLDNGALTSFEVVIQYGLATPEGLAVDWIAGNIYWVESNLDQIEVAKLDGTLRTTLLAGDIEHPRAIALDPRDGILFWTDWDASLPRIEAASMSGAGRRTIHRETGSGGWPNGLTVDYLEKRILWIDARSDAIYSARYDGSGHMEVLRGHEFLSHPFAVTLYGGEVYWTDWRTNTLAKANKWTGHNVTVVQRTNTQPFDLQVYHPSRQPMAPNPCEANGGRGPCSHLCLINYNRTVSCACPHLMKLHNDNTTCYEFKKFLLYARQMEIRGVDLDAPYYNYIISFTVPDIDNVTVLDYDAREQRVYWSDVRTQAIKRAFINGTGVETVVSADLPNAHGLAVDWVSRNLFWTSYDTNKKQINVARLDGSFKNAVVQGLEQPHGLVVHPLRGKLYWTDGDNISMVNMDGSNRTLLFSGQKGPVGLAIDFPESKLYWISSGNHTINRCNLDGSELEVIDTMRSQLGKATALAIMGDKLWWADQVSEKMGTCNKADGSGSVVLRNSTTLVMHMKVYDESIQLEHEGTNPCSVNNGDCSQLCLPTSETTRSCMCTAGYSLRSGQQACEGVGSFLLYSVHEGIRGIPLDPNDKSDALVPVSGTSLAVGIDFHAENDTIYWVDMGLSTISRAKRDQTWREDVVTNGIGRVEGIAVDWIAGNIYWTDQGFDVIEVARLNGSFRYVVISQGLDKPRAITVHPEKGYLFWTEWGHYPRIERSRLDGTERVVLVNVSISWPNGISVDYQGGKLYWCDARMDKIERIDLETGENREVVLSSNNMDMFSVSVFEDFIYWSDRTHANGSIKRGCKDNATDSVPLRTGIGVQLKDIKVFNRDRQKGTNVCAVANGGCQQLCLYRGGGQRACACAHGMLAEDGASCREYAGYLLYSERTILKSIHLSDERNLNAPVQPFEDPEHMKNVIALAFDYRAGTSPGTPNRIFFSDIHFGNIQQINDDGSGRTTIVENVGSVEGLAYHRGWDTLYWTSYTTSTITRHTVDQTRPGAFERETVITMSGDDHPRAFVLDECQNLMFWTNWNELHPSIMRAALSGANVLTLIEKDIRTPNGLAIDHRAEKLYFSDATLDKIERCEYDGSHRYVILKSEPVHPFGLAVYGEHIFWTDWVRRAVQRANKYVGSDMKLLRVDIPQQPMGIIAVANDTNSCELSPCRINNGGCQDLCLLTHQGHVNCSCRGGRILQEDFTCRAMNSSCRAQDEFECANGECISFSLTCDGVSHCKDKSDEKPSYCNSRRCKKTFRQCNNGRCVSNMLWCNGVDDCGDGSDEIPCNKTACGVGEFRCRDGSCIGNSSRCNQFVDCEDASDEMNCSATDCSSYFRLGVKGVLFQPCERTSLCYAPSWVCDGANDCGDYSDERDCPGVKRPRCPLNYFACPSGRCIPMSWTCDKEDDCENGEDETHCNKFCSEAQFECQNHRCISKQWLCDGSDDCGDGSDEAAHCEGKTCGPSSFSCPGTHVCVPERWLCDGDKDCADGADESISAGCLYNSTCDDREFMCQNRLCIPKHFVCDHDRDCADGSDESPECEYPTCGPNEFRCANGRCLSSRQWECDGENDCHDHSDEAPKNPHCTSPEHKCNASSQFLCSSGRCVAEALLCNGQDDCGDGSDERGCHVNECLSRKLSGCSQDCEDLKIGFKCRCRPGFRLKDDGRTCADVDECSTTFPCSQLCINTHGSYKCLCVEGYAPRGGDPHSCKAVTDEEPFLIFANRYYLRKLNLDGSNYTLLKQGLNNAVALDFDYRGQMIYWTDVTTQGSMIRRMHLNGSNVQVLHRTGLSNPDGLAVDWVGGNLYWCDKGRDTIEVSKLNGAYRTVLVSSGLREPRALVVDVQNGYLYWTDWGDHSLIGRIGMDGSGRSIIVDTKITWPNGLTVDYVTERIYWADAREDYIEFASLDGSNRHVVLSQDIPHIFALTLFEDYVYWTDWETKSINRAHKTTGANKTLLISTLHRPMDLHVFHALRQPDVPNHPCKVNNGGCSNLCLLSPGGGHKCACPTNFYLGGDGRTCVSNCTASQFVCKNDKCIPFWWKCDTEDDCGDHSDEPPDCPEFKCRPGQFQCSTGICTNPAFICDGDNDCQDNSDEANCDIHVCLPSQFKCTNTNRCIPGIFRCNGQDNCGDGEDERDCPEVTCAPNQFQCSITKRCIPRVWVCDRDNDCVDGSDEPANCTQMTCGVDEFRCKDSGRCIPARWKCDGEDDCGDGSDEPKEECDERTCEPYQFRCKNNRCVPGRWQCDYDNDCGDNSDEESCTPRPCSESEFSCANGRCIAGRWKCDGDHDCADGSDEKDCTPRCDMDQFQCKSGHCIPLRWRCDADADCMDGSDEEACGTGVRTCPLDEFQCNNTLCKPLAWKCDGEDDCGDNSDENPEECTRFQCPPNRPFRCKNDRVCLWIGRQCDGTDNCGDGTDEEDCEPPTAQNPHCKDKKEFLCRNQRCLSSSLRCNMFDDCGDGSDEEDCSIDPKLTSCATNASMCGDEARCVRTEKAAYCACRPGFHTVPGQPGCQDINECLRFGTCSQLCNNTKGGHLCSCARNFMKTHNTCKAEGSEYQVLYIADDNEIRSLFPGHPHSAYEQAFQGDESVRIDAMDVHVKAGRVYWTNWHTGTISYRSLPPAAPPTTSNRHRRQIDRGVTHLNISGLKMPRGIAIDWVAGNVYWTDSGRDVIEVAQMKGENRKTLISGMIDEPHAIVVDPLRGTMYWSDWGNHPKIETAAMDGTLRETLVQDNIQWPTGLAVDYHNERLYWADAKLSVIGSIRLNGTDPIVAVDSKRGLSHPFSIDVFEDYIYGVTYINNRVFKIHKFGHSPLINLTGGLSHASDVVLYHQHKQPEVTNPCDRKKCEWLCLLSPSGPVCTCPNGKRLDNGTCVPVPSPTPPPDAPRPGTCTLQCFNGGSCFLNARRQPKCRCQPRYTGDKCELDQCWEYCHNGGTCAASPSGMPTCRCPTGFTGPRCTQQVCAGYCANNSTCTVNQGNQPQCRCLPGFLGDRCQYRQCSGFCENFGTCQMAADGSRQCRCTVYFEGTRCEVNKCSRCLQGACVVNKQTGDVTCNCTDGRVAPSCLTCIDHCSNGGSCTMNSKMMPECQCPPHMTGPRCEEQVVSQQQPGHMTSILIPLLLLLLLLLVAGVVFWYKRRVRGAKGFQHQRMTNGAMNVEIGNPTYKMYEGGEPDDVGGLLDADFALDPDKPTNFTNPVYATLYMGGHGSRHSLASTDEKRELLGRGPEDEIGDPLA",
  "assay": "fluorescent immunostaining of rat retina sections after intravitreal administration (colocalisation in the ganglion cell layer)",
  "procedure": "Frozen specimen preparation and immunofluorescence staining of rat eyeballs were performed in the following procedures. [0212] (1) Thinly sliced sections were prepared in the same manner as in the HE staining method. [0213] (2) 15% blocking buffer (in PBS, goat 15% serum, 0.05% Tween 20) was added and reacted at room temperature for one hour. [0214] (3) Washing was performed with PBS for 15 minutes. [0215] (4) A Primary antibody ([…] in 1% blocking buffer) was added and incubated overnight at 4° C. [0216] (5) Washing was performed with PBS for 15 minutes. [0217] (6) A secondary antibody (Alexa Fluor 488-bound goat anti-rabbit IgG (dilution 1:500, Invitrogen)) and Alexa Fluor 594-bound goat anti-human IgG (dilution 1:500, Invitrogen)) were added and reacted at room temperature for one hour. [0218] (7) Washing was performed with PBS containing Heochst33342 (1:2000 dilution) for one minute. [0219] (8) After encapsulation, observation was performed with a fluorescence microscope.\nIn the above experiment, it was observed by fluorescent immunostaining whether C2-D11 IgG binds to LRP1 of retinal ganglion cells after being administered into the vitreous body of rats. […] On the other hand, it was shown that the anti-OVA antibody was not colocalized.",
  "data": [
    {"binder": "anti-LRP1 human IgG1 antibody prepared from C2_D11 (antibody, V domains shown, VH and VL of C2_D11 were put into expression vectors with a human IgG1 Fc region and expressed in HEK-293; also called C2-D11 IgG; human C2-D11 IgG) VH: not shown VL: SSELTQDPAVSVALGQTVRITCQGDSLRSYYASWYQQKPGQAPVLVIYGKNNRPSGIPDRFSGSSSGNTASLTITGAQAEDEADYYCNSSQAQRNAVVFGGGTKLTVLG", "values": [
      {"measurement": "binding result", "result": "binds"}
    ]}
  ]
}
